Measured values published in article PMC9352930 (2022).

Tests used:
[1] = biological target: T1, C3b (proteolytic fragment of complement component C3) (human, UniProt P01024 749-1663; P01024 749-1663); experiment: BLI
iC3b [2] = biological target: iC3b (human); experiment: BLI
[3] = biological target: native complement component C3 (human); experiment: SPR
[4] = biological target: T1, C3b (proteolytic fragment of complement …); experiment: SPR
C3 methylamine = C3 methylamine (human, treated with methylamine); experiment: SPR
[5] = biological target: T1, C3b (proteolytic fragment of complement …); experiment: BLI; remark: listed apart in the source
iC3b [6] = biological target: iC3b (human); experiment: BLI; remark: listed apart in the source

T1 sequence (P01024 23-667, chain 1 of 2): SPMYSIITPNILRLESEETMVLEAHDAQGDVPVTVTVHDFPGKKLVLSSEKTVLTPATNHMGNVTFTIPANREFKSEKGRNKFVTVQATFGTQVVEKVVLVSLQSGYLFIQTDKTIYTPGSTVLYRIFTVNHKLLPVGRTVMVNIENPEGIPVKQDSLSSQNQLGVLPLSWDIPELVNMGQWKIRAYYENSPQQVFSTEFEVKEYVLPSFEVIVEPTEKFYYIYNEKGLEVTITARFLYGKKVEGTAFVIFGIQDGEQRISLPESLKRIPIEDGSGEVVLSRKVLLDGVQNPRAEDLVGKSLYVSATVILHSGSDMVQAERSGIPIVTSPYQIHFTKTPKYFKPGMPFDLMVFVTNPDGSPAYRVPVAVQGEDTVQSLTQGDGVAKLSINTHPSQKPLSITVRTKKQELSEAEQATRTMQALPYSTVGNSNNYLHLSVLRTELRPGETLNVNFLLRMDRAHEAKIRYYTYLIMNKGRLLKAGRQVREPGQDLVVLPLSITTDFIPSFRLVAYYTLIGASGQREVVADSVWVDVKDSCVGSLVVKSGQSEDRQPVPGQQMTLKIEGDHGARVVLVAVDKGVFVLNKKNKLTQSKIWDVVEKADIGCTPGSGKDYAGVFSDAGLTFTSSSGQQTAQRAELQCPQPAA
T1 sequence (P01024 749-1663, chain 2 of 2): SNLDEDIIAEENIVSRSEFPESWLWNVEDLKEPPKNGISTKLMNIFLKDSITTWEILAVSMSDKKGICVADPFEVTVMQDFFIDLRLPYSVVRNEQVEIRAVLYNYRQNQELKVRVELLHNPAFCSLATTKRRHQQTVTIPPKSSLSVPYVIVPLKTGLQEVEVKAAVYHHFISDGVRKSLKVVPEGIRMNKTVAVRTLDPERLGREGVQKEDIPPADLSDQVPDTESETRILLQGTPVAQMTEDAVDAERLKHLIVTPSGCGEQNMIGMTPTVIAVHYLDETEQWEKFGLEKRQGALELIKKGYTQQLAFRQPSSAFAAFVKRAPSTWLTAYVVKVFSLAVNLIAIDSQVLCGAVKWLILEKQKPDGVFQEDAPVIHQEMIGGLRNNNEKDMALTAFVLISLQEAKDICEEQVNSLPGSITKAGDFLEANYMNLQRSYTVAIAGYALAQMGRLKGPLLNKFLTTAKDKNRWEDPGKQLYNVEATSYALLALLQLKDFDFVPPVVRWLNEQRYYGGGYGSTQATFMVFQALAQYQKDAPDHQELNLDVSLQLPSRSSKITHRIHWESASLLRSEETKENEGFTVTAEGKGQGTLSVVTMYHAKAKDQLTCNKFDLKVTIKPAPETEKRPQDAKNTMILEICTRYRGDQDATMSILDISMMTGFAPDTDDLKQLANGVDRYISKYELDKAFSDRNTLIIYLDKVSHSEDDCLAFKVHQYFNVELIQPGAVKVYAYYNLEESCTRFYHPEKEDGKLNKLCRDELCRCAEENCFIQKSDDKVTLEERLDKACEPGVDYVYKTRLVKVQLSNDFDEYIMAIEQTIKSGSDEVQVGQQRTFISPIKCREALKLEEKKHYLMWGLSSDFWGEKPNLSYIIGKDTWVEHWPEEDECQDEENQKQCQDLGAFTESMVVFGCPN
Sequence of iC3b (human) (chain, as listed by the source, chain 1 of 3): as the sequence (P01024 23-667, chain 1 of 2) above
Sequence of iC3b (human) (chain, as listed by the source, chain 2 of 3): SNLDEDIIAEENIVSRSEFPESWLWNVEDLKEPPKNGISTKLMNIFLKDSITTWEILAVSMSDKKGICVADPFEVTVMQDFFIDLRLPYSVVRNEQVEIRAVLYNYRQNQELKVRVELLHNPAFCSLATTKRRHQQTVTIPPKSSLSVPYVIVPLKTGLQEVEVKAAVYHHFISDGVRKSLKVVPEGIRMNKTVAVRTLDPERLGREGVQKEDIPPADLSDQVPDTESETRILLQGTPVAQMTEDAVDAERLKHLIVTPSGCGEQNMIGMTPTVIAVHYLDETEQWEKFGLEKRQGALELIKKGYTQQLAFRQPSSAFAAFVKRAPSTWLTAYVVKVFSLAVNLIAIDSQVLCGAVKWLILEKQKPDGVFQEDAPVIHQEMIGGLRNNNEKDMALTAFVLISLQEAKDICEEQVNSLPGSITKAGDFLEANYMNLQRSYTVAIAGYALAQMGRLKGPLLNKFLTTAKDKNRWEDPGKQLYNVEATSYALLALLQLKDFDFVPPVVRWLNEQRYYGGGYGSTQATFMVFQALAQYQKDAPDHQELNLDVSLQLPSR
Sequence of iC3b (human) (chain, as listed by the source, chain 3 of 3): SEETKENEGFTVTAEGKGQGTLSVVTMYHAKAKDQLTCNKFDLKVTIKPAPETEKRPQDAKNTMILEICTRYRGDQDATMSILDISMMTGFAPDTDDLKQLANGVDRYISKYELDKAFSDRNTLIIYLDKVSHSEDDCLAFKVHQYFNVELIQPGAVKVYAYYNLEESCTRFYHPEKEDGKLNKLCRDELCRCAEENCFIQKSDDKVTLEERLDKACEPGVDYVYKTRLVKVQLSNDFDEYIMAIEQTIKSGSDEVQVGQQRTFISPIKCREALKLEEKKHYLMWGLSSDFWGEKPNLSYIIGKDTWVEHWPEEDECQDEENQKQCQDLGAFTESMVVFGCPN
Sequence of native complement component C3 (human) (chain, as listed by the source, chain 1 of 2): as the sequence (P01024 23-667, chain 1 of 2) above
Sequence of native complement component C3 (human) (chain, as listed by the source, chain 2 of 2): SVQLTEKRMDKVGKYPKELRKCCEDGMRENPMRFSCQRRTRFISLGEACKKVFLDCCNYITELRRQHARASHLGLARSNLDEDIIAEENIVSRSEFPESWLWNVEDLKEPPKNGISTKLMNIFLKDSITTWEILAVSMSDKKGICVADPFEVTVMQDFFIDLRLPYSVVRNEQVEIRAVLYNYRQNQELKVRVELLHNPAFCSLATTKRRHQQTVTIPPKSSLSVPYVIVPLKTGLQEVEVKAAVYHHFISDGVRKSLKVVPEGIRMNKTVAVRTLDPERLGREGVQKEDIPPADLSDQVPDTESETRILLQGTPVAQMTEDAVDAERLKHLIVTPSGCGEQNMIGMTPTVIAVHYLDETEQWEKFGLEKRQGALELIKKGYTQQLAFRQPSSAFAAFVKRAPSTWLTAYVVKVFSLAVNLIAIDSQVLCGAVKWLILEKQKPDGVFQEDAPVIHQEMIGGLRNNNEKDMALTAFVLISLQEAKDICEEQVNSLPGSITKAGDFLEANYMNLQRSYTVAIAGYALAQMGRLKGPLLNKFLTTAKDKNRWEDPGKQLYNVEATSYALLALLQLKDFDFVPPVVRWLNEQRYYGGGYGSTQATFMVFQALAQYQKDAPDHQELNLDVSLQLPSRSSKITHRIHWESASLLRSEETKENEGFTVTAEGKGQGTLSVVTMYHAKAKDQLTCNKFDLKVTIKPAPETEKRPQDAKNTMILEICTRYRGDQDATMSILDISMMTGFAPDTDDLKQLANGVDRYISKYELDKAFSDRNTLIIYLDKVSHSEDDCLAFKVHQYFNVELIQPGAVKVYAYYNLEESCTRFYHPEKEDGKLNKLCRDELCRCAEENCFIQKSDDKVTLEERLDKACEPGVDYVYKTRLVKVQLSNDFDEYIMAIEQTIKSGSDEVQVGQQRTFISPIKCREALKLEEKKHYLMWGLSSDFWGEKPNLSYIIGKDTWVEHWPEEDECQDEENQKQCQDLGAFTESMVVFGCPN
Sequence of C3 methylamine (human, treated with methylamine) (chain, as listed by the source, chain 1 of 2): as the sequence (P01024 23-667, chain 1 of 2) above
Sequence of C3 methylamine (human, treated with methylamine) (chain, as listed by the source, chain 2 of 2): as the sequence (chain, as listed by the source, chain 2 of 2) above

B1: EWEnH fusion protein (EWE fused to FH CCP2-4) (other)
chain: EWEQVQLVETGGGLVQAGGSLRLSCAASGSIFSINAMGWFRQAPGKEREFVATINRSGGRTYYADSVKGRFTISRDNGKNMVYLQMHSLKPEDTAIYYCAAGTGWSPQTDNEYNYWGQGTQVTVSSRPCGHPGDTPFGTFTLTGGNVFEYGVKAVYTCNEGYQLLGEINYRECDTDGWTNDIPICEVVKCLPVTAPENGKIVSSAMEPDREYHFGQAVRFVCNSGYKIEGDEEMHCSDDGFWSKEKPKCVEISCKSPDVINGSPISQKIIYKENERFQYKCNMGYEYSERGDAVCTESGWRPLPSCEE
[1]
  Kd: 7.1 nM
iC3b [2]
  Kd: 8.9 nM

B2: avi-tagged, biotinylated EWE nanobody (VHH)
VHH: QVQLVETGGGLVQAGGSLRLSCAASGSIFSINAMGWFRQAPGKEREFVATINRSGGRTYYADSVKGRFTISRDNGKNMVYLQMHSLKPEDTAIYYCAAGTGWSPQTDNEYNYWGQGTQVTVSS
modifications: biotin
[3]
  koff: 0.000105 s⁻¹
[4]
  koff: 8.6e-05 s⁻¹
C3 methylamine
  koff: 7.6e-05 s⁻¹

B3: EWE-hC3Nb1 nanobody, bacterially expressed (VHH)
VHH: B2 VHH
[5]
  koff: 0.00037 s⁻¹
iC3b [6]
  koff: 0.00026 s⁻¹
